For assay [1], the target named is human IgG1 (human) [IgG part: P01857]. The assay is described as follows: batch binding, immobilised ligand.
The target of assay [2] is human IgG2 (human) [IgG part: P01859]. The assay can be described thus: batch binding, immobilised ligand.
In another assay the target is human IgG3 (human) (UniProt P01860). The assay is described as follows: batch binding, immobilised ligand.
Assay [3] has as its target human IgG4 (human) [IgG part: P01861]. The assay is described as follows: batch binding, immobilised ligand.
Assay [4] deals with human IgG (unfractionated, polyclonal). The assay can be described thus: filterplate; ligand density not determined.
For assay [5] the target is unchanged. The assay is described as follows: mini-column; ligand density not determined.
Assay [6] has as its target human IgG1 (human) [IgG part: P01857]. The assay is described as follows: mini-column chromatography, immobilised ligand.
Assay [7] addresses human IgG2 (human) [IgG part: P01859]. The assay is described as follows: mini-column chromatography, immobilised ligand.
Assay [8] has as its target human IgG4 (human) [IgG part: P01861]. The assay is described as follows: mini-column chromatography, immobilised ligand.

A value given as a limit tells only on which side of the number the result lay.

human IgG1 (human) [IgG part: P01857], sequence (P01857 other isoform, or with tags, fused parts or gaps): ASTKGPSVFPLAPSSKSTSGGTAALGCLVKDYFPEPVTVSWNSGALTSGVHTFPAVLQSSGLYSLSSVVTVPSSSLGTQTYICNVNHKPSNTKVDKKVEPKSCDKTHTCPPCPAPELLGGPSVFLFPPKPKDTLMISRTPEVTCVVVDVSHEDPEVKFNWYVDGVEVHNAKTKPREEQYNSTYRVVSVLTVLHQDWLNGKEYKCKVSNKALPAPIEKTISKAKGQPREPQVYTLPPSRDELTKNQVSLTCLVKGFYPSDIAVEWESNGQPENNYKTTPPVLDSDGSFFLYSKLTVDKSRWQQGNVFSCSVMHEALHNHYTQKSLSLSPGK
human IgG2 (human) [IgG part: P01859], sequence (P01859 other isoform, or with tags, fused parts or gaps): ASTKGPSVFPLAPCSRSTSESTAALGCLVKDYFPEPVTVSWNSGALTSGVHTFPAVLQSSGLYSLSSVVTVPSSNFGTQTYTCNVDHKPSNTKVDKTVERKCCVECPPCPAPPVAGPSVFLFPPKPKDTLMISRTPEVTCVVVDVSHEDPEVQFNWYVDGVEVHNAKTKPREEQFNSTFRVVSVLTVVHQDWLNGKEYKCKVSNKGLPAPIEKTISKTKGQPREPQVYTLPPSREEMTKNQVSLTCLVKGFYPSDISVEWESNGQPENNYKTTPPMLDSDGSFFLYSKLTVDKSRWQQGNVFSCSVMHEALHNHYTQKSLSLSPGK
human IgG4 (human) [IgG part: P01861], sequence (P01861 other isoform, or with tags, fused parts or gaps): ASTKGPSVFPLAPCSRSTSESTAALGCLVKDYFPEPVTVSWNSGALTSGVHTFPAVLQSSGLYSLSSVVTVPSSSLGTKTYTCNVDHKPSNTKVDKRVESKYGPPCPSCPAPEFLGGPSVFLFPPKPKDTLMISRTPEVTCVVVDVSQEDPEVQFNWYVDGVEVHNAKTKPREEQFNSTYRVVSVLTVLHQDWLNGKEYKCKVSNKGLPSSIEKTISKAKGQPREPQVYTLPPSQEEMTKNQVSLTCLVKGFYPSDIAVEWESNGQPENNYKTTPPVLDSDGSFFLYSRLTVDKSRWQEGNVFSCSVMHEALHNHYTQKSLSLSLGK
human IgG3 (human), sequence (P01860 other isoform, or with tags, fused parts or gaps): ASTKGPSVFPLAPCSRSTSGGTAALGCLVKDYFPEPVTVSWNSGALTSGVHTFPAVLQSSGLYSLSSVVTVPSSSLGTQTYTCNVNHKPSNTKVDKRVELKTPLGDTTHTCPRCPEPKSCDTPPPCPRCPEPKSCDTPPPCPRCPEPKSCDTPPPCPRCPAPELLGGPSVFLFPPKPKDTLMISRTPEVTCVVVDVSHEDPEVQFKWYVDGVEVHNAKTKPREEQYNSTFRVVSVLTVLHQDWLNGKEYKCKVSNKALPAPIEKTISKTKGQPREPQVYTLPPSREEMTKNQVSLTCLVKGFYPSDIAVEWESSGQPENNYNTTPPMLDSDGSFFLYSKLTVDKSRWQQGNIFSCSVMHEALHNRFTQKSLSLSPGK

Turning to Protein A (from UniProt P38507 37-327), the Bound (% of Total Load) in [1] came out at 96%; in assay [2], 85%; in the assay with human IgG3 (human), 0%; in assay [3], 89%. The bdg % (of Total Load) was determined as 93% in assay [1], 93% in assay [2], 5% with human IgG3 (human) and 92% in [3]. Also, the Static Capacity (mg IgG/mL resin) in [4] came out at 11.1. Besides, the 10% Breakthrough Capacity (mg IgG/mL resin) in [5] worked out at 12.9. Besides, the Total Dynamic Capacity (mg IgG/mL resin) in assay [5] came out at 16.3. Also, the binding efficiency in assay [6], in [7] and in [8] was above 90% throughout.

The values are drawn from patent US20030199671A1, “Binding molecules for Fc-region polypeptides” (priority 2001, published 2003).
